# In paper PMC6096924, “Mechanism of activation of the BNLF2a immune evasion gene of Epstein-Barr virus by Zta”:
# Tests used:
# Conditions in all cases: protein: recombinant; tags: His, GST (fusion); chain copies: 2; label: IR-800; blunt
# [1] = target: T1, His-GST-Zta (DNA binding and dimerization region) (Epstein-Barr virus, UniProt P03206 168-245); test: EMSA; highest binding of the five ZREs
# [2] = target: T1, His-GST-Zta (DNA binding and …); test: EMSA; CpG methylation; binding increased vs unmethylated ZRE1 (P<=0.01)
# [3] = target: T1, His-GST-Zta (DNA binding and …); test: EMSA
# T1 sequence (P03206 168-245): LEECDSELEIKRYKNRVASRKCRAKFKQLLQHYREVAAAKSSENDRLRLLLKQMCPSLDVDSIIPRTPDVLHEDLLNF
Binder,binding result [3],other results
BNLF2a ZRE2 (dsDNA) DNA 1: CACCTGTTGTTGACACATTCTTTGCGC DNA 2: GCGCAAAGAATGTGTCAACAACAGGTG,,binding result [1]: binds
"BNLF2a ZRE1me (CpG-methylated) (dsDNA, 5-methyl-C (printed meC) at C12 of strand 1 and C15 of strand 2) DNA 1: ACACCTGTCCTCGCTCATCTTTCCACA DNA 2: TGTGGAAAGATGAGCGAGGACAGGTGT",,binding result [2]: binds
BNLF2a ZRE5 (dsDNA) DNA 1: TAAGCTACTATGACTAACCTTTCTTTA DNA 2: TAAAGAAAGGTTAGTCATAGTAGCTTA,binds,
BNLF2a ZRE3 (dsDNA) DNA 1: CTTTCCATCTTGTGCCAATACACATTT DNA 2: AAATGTGTATTGGCACAAGATGGAAAG,binds,
BNLF2a ZRE4 (dsDNA) DNA 1: TCACCTTAACTGGCACACACTCCCTTA DNA 2: TAAGGGAGTGTGTGCCAGTTAAGGTGA,binds,
BNLF2a ZRE1 (dsDNA) DNA 1: ACACCTGTCCTCGCTCATCTTTCCACA DNA 2: TGTGGAAAGATGAGCGAGGACAGGTGT,binds,
